This note sets out measurements from patent publication US20030204066A1.

In the assay the target is human tumor necrosis factor-α (TNFα) (human) (UniProt P01375). Put plainly: cell-based or functional assay.
Chain of human tumor necrosis factor-α (TNFα) (human) (P01375 77-233): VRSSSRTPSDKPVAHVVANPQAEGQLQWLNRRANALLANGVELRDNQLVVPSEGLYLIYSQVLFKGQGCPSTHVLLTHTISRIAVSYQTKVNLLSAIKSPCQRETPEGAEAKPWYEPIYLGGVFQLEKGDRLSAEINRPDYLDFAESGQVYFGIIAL

B1: chimeric mouse/human IgG1 anti-platelet mAb (7E3) (antibody, INN chains, looked up, V domains shown)
VH: EVQLQQSGTVLARPGASVKMSCEASGYTFTNYWMHWVKQRPGQGLEWIGAIYPGNSDTSYIQKFKGKAKLTAVTSTTSVYMELSSLTNEDSAVYYCTLYDGYYVFAYWGQGTLVTVSA
VL: EIVLTQSPVTLSVTPGDSVSLSCRASRDISNNLHWFQQTSHESPRLLIKYASQSMSGIPSRFSGSGSGTDFTLSINSVETEDFGMYFCQQTNSWPYTFGGGTKLEIK
modifications: chimeric IgG1
Regarding B1, the IL-6 secreted by FS-4 fibroblasts (ng/ml) at 0.3 ng/ml TNF, 4 µg/ml antibody amounted to 1.6 ng/mL; the IL-6 secreted by FS-4 fibroblasts (ng/ml) at 1.5 ng/ml TNF, 4 µg/ml antibody came to 1.96 ng/mL; the IL-6 secreted by FS-4 fibroblasts (ng/ml) at 7.5 ng/ml TNF, 4 µg/ml antibody is 2.16 ng/mL.
